Source: patent publication US20230052646A1 (JJP BIOLOGICS SP Z O O, published 2023)

T1: membrane-bound full-length human HVEM on stable HVEM-transfected HEK293F cells (clone no. 128) (human, UniProt Q92956 39-283)
T1 construct: The same cDNA was also expressed on Sf9 insect cells; also called TNFRSF14; CD270
T1 sequence: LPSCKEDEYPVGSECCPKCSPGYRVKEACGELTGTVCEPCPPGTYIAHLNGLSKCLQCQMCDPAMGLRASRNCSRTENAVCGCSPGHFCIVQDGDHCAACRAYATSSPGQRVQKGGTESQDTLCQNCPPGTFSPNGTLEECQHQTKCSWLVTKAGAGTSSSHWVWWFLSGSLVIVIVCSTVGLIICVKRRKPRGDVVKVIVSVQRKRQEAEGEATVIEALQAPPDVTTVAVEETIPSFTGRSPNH

T2: membrane-bound 'CRD1 truncated' human HVEM on transiently transfected HEK293F cells (human, UniProt Q92956 76-283)
T2 construct: aa 1-19 are a mouse Ig signal peptide and are left out; Starts with CRD2; also called human HVEM deleted for CRD1; CRD1 truncated HVEM
T2 sequence: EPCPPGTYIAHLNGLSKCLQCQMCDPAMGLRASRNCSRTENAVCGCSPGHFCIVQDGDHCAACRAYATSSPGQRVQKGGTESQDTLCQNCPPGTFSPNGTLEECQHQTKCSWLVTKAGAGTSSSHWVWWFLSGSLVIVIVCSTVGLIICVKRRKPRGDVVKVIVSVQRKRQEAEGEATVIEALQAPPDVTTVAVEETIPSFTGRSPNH

B1: mouse anti-human HVEM antibody no. 45H6 (antibody, mouse IgG1, V domains shown)
VH: DVQLVESGGGLVQPGGSRKLSCAASGFTFSSFGMHWVRQAPEKGLEWVAYISSGNSNIYYVDTVKGRFTISRDNPKNTLFLQMTSLRSEDTAMYYCARKRAYGDYSGFSMDYWGQGTSVTVSS
VL: DIVMTQSQKFMSTSVGDRVSVTCKASQNVDTNVAWYQQKPGQSPKALIYSASYRYSGVPDRFTGSGSGTDFTLTISNVQSEDLAEYFCQQYNKFPLTFGGGTKLEIK
notes: mouse IgG1/kappa; also called 45H6 (mouse)
B2: chimeric mouse/human IgG4/kappa anti-human HVEM antibody no. 11H7 (antibody, V domains shown)
VH: QVQLKQSGPGLVQPSQSLSITCTVSGFSLTIYGVHWVRQSPGKGLEWLGVIWSGGSTDYNAAFISRLSISKDNSKSQVFFKMNSLQANDTAIYYCARRDYGSRSFYYAMDYWGQGTSVTVSS
VL: EIVLTQSPALMAASPGEKVTITCSVSSSISSSNLHWYQQKSETSPKPWIYGTSNLASGVPVRFSGSGSGTSYSLTISSMEAEDAATYYCQQWSSYPLTFGGGTKLEIKR
notes: 40/41 within the entry; Stabilized human IgG4 (S239P) already in the entry; also called chimeric 11H7
B3: mouse anti-human HVEM antibody no. 11H7 (antibody, mouse IgG1, V domains shown)
VH: QVQLKQSGPGLVQPSQSLSITCTVSGFSLTIYGVHWVRQSPGKGLEWLGVIWSGGSTDYNAAFISRLSISKDNSKSQVFFKMNSLQANDTAIYYCARRDYGSRSFYYAMDYWGQGTSVTVSS
VL: EIVLTQSPALMAASPGEKVTITCSVSSSISSSNLHWYQQKSETSPKPWIYGTSNLASGVPVRFSGSGSGTSYSLTISSMEAEDAATYYCQQWSSYPLTFGGGTKLEIK
notes: mouse IgG1/kappa; also called 11H7 (mouse)
B4: mouse anti-human HVEM antibody no. 49G4 (antibody, mouse IgG1, V domains shown)
VH: EVQLQQSGAELVKPGASVKLSCRASGFNIKDTYMHWVKQRPEQGLEWIGRIDPARGNTKYDPKFQGKATITADTSSNTAYLQLSSLTSEDTAVYYCASAMDYWGQGTSVTVSS
VL: DVLMTQTPLSLPVSLGDQASISCRSSQSIVHSNGNTYLEWFLQKPGQSPKLLIYKVSNRFSGVPDRFSGSGSGTDFTLKISRVEAEDLGVYYCFQGSHVPLTFGAGTKLELK
notes: mouse IgG1/kappa; also called 49G4 (mouse)

Legend:
[1] = target: T1, membrane-bound full-length human HVEM …; test: FACS titration on HVEM-HEK293F, half-maximum binding
Description: In order to determine the relative binding affinity of purified BTLA/HVEM blocking chimeric mouse/human anti-human HVEM antibodies no. 36H12, 45H6, 48H6, 11H7, and 49G4 for human HVEM, FACS analysis was used.
To this end, stable human full-length HVEM-transfected HEK293F cells (clone no. 128; see Example 1(a) above) were put at 10×10⁶ cells/mL in ice-chilled PBS containing 0.1% BSA (Sigma)/0.05% NaN₃ (PBS/BSA/NaN₃) supplemented with 50 μg/mL human IgGs (blocking possible Fcγ receptors; Sigma) for 10 minutes at 4° C. Then, 10 μL/tube (i.e., 0.1×10⁶ cells) of these cells were incubated with or without 100 μL titrated (in PBS/BSA/NaN₃) purified BTLA/HVEM blocking chimeric mouse/human anti-human HVEM antibody/tube for 30 minutes at 4° C. After extensive washing in PBS/BSA/NaN₃, cells were subsequently incubated with 1:200 diluted PE-conjugated goat anti-human IgG Fcγ-specific antibodies (Jackson ImmunoResearch) for 30 minutes at 4° C. After extensive washing in PBS/BSA/NaN₃, cells were fixed in 4% formaldehyde in PBS/BSA/NaN₃ for 30 minutes at 4° C. Binding (geo-mean fluorescence intensity) of chimeric mouse/human anti-human HVEM antibodies no. 36H12, 45H6, 48H6, 11H7, and 49G4 on membrane human HVEM was measured using a flow cytometer (FACSCalibur; BD Biosciences). For comparison, purified BTLA/HVEM blocking mouse anti-human HVEM antibody counterparts no. 36H12, 45H6, 48H6, 11H7, and 49G4 were run in parallel, and their binding was monitored as described in Example 2 (a).

[2] = target: T1, membrane-bound full-length human HVEM …; test: FACS, Ab 10 µg/mL then biotinylated BTLA on HVEM-HEK293F
Description: (§1) Generation of human ‘full-length’ HVEM-transfected HEK293F cells (clone no. 128) is described in Example 1a. Binding of soluble human BTLA, of soluble human CD160, of soluble human LIGHT, and of soluble human TNFβ on surface human HVEM-transfected cells was analysed by FACS analysis. To this end, stable human full-length HVEM-transfected HEK293F cells were put at 10×10⁶ cells/mL in ice-chilled phosphate-buffered saline containing 0.1% BSA (Sigma)/0.05% NaN₃ (PBS/BSA/NaN₃) supplemented with 50 μg/mL human IgGs (blocking possible Fcγ receptors; Sigma) for 10 minutes at 4° C. Then, 10 μL/tube (i.e., 0.1×10⁶ cells) of these cells were incubated with or without 100 μL purified chimeric mouse/human anti-HVEM antibody at 10 μg/mL/tube or a human IgG4/κ (Sigma) negative isotype control at 10 μg/mL/tube for 30 minutes at 4° C. After this (i.e., without washing), cells were subsequently incubated with 1 μg/mL soluble biotinylated human BTLA (Sino Biological Inc), with 10 μg/mL soluble his-tagged human CD160 (Sino Biological Inc), with 1 μg/mL soluble his-tagged human LIGHT (Sino Biological Inc), or with 0.1 μg/mL soluble biotinylated human TNFβ (Sino Biological Inc) in PBS/BSA/NaN₃ for 30 minutes at 4° C. After extensive washing in PBS/BSA/NaN₃, cells were incubated with 1:200 diluted PE-conjugated streptavidin (detection BTLA and TNFβ; Jackson ImmunoResearch) or with biotinylated mouse anti-his antibody (detection CD160 and LIGHT; R&D Systems) at 10 μg/mL for 30 minutes at 4° C. After extensive washing in PBS/BSA/NaN₃, cells were incubated with 1:200 diluted PE-conjugated streptavidin (detection CD160 and LIGHT; Jackson ImmunoResearch) for 30 minutes at 4° C. After extensive washing in PBS/BSA/NaN₃, cells were fixed in 4% formaldehyde in PBS/BSA/NaN₃ for 30 minutes at 4° C. Binding of ligands BTLA, CD160, LIGHT and TNFβ on membrane human HVEM was measured using a flow cytometer (model FACSCalibur; BD Biosciences). For comparison, purified BTLA/HVEM blocking mouse anti-human HVEM antibody counterparts no. 36H12, 45H6, 48H6, 11H7, and 49G4 at 10 μg/mL/tube and a mouse IgG1 (BD Biosciences) negative isotype control at 10 μg/mL/tube were run in parallel.

[3] = target: T2, membrane-bound 'CRD1 truncated' human …; test: FACS, undiluted hybridoma supernatant, CRD1 truncated HVEM on HEK293F
Description: Generation of human ‘full-length’ HVEM-transfected HEK293F cells (clone no. 128) is described in Example 1a. […] After 72 hours, surface human HVEM expression on transfected cells was analysed by FACS analysis. To this end, stable human full-length HVEM-transfected HEK293F cells and transient human ‘CRD1 truncated’ HVEM-transfected HEK293F cells were put at 10×10⁶ cells/mL in ice-chilled phosphate-buffered saline containing 0.1% BSA (Sigma)/0.05% NaN₃ (PBS/BSA/NaN₃) supplemented with 50 μg/mL human IgGs (blocking of possible Fcγ receptors; Sigma) for 10 minutes at 4° C. Then, 10 μL/tube (i.e., 0.1×10⁶ cells) of these cells were incubated with 100 μL undiluted hybridoma supernatant/tube for 30 minutes at 4° C. Phycoerythrin (PE)-conjugated mouse anti-human HVEM antibody (clone eBioHVEM-122; eBioscience) at 1:20 was run as a positive control antibody. After extensive washing in PBS/BSA/NaN₃, cells were subsequently incubated with 1:200 diluted PE-conjugated goat anti-mouse IgG Fcγ-specific antibodies (Jackson ImmunoResearch) for 30 minutes at 4° C. After extensive washing in PBS/BSA/NaN₃, cells were fixed in 2% formaldehyde in PBS/BSA/NaN₃ for 30 minutes at 4° C. Binding of antibodies was measured using a flow cytometer (model FACSCalibur; BD Biosciences).

[4] = target: T1, membrane-bound full-length human HVEM …; test: FACS, Ab 10 µg/mL then biotinylated TNFβ on HVEM-HEK293F
Description: as §1

[5] = target: T1, membrane-bound full-length human HVEM …; test: FACS, biotinylated BTLA-Fc pre-bound, then Ab 20 µg/mL
Description: (§2) Generation of human ‘full-length’ HVEM-transfected HEK293F cells (clone no. 128) is described in Example 1a. Displacement of pre-bound soluble human BTLA, soluble human CD160, soluble human LIGHT, and soluble human TNFβ from surface human HVEM-transfected cells was analysed by FACS analysis. To this end, stable human full-length HVEM-transfected HEK293F cells were put at 10×10⁶ cells/mL in ice-chilled phosphate-buffered saline containing 0.1% BSA (Sigma)/0.05% NaN₃ (PBS/BSA/NaN₃) supplemented with 50 μg/mL human IgGs (blocking possible Fcγ receptors; Sigma) for 10 minutes at 4° C. Then, 10 μL/tube (i.e., 0.1×10⁶ cells) of these cells were incubated without or with 50 μL soluble biotinylated human BTLA-human Fcγ fusion protein (Sino Biological Inc) at 2 μg/mL/tube, with soluble his-tagged human CD160 (Sino Biological Inc) at 20 μg/mL/tube, with soluble his-tagged human LIGHT (Sino Biological Inc) at 2 μg/mL/tube, or with soluble biotinylated human TNFβ (Sino Biological Inc) at 0.2 μg/mL/tube in PBS/BSA/NaN₃ for 30 minutes at 4° C. After this (i.e., without washing), cells were subsequently incubated with 50 μL purified chimeric mouse/human anti-HVEM antibody at 20 μg/mL/tube or a human IgG4/κ (Sigma) negative isotype control at 20 μg/mL/tube for 30 minutes at 4° C. […] After extensive washing in PBS/BSA/NaN₃, cells were incubated with 1:200 diluted PE-conjugated streptavidin (detection CD160 and LIGHT; Jackson ImmunoResearch) for 30 minutes at 4° C. After extensive washing in PBS/BSA/NaN₃, cells were fixed in 4% formaldehyde in PBS/BSA/NaN₃ for 30 minutes at 4° C. Residual binding of ligands BTLA, CD160, LIGHT and TNFβ on membrane human HVEM was measured using a flow cytometer (model FACSCalibur; BD Biosciences).

[6] = target: T1, membrane-bound full-length human HVEM …; test: FACS, biotinylated TNFβ pre-bound, then Ab 20 µg/mL
Description: as §2

| Binder | EC50 [1] | % blocking of ligand binding [2] | binding result [3] | % blocking of ligand binding [4] | % displacement of pre-bound ligand [5] | % displacement of pre-bound ligand [6] |
| --- | --- | --- | --- | --- | --- | --- |
| B1 | 0.26 µg/mL | > 95% | no binding |  |  |  |
| B2 | 0.63 µg/mL | > 95% |  | > 55% | > 95% | < 20% |
| B3 | 0.532 µg/mL | > 95% | no binding | > 60% |  |  |
| B4 | 0.266 µg/mL | > 95% | no binding | > 85% |  |  |
